In the supplement of paper PMC10126150:
± gives the standard deviation of the averaged measurements.

Tested on: ATP
Test: switch fluorescence ratio, 500 uM ATP over buffer (Cy3 cluster intensity, sum of 5 cycles each) (fold (ratio)); higher = stronger signal-on switching upon ATP binding; sequences stand for … in TCGTCGGCAGCGTCAGATGTGTATAAGAGACAGTTTTTTTTTTTTTTTTTTTTTTTTT…TC
Details: aptamer strand: ATP DNA aptamer (quencher-CACCTGGGGGAGTATTGCGGAGGAAGG + anchor), 100 nM annealed; ATP concentration: 500 uM
Summary of the method: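 Per cluster, summed Cy3 intensity from the target cycles was divided by that from the buffer cycles to give the fluorescence ratio, then averaged per switch-domain sequence. Clusters outside 100-1000 RFU were excluded. The Cy3-labelled switching-strand clusters, on a modified Illumina MiSeq flow-cell, were annealed to 100 nM quencher-labelled ATP aptamer and imaged in selection buffer, then after 15 min with 500 uM ATP at 22 °C, for five cycles with NaOH stripping and re-annealing between them.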
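Note: ATP exposure 15 min at 22 °C before imaging.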

Sequence | switch fluorescence ratio
TTATGAGGCA | 0.978 ± 0.026
TTATGATAGG | 1.016 ± 0.0079
TTATGCCGGT | 1.02 ± 0.068
TTATGCTGTT | 1 ± 0.011
TTATGGAAGT | 0.989 ± 0.025
TTATGGAATT | 1.01 ± 0.044
TTATGGAGCA | 1.09 ± 0.09
TTATGGAGTT | 0.987 ± 0.01
TTATGGCAGA | 1.009 ± 0.01
TTATGGCGGT | 1.063 ± 0.0057
TTATGGCTTC | 0.993 ± 0.029
TTATGGGAGT | 0.966 ± 0.026
TTATGGGCGT | 1.02 ± 0.02
TTATGGGGAT | 0.988 ± 0.019
TTATGGGTAA | 1.03 ± 0.034
TTATGGGTTG | 1.002 ± 0.0039
TTATGGTACA | 0.98 ± 0.019
TTATGTATAT | 1.007 ± 0.0069
TTATGTCGAA | 0.98 ± 0.017
TTATGTCGAG | 0.978 ± 0.034
TTATGTCTTG | 1.01 ± 0.019
TTATGTGGGC | 0.97 ± 0.022
TTATGTTTG | 1.012 ± 0.0031
TTATGTTTTA | 0.9965 ± 0.0046
TTATTAATCG | 0.963 ± 0.081

Sequence | switch fluorescence ratio
TTATTAATGT | 1.02 ± 0.021
TTATTAGACG | 0.976 ± 0.059
TTATTATAGA | 0.998 ± 0.021
TTATTCCCAG | 1.016 ± 0.0014
TTATTCCTTT | 0.978 ± 0.042
TTATTCGGGG | 0.968 ± 0.054
TTATTCGTTT | 0.98 ± 0.03
TTATTGAATT | 0.998 ± 0.045
TTATTGACGA | 0.992 ± 0.021
TTATTGATTT | 1.017 ± 0.0021
TTATTGCTTT | 1 ± 0.036
TTATTGGGCA | 1.04 ± 0.021
TTATTGGGTC | 1.002 ± 0.01
TTATTGGTAA | 1.0091 ± 0.00034
TTATTGTAAT | 1.029 ± 0.0099
TTATTGTGCG | 1.03 ± 0.034
TTATTTATCG | 0.987 ± 0.026
TTATTTATTC | 1.03 ± 0.037
TTATTTGGTC | 1 ± 0.056
TTATTTGTTA | 1.01 ± 0.041
TTATTTTGGG | 0.99 ± 0.037
TTCAAAATCT | 1.04 ± 0.019
TTCAAAGACT | 1.02 ± 0.049
TTCAAATCCC | 1.005 ± 0.0094
TTCAACTGGT | 0.996 ± 0.022

Sequence | switch fluorescence ratio
TTCAAGCAAG | 1.15 ± 0.015
TTCAAGGAGT | 1.028 ± 0.0017
TTCAAGTGTA | 1.01 ± 0.022
TTCAATCTGT | 0.968 ± 0.064
TTCAATGTTT | 0.978 ± 0.049
TTCACAACCT | 1.77 ± 0.36
TTCACACTA | 1.07 ± 0.044
TTCACCCGTC | 0.971 ± 0.023
TTCACCGGCA | 1.079 ± 0.0089
TTCACGCTAG | 1.0378 ± 0.00056
TTCACGGGTC | 1.06 ± 0.06
TTCACTCTTT | 1.017 ± 0.0099
TTCAGCGATG | 1.024 ± 0.0081
TTCAGCTTGG | 0.99 ± 0.015
TTCAGGATGG | 1.02 ± 0.017
TTCAGGGCGC | 1.03 ± 0.053
TTCAGGGCTT | 0.986 ± 0.036
TTCAGGGGCA | 1.08 ± 0.033
TTCAGGGGGC | 1.02 ± 0.014
TTCAGGGGTA | 1.02 ± 0.033
TTCAGGGGTT | 1.04 ± 0.068
TTCAGGTATG | 1.01 ± 0.028
TTCAGGTGGC | 1.18 ± 0.17
TTCAGGTGTG | 1.142 ± 0.0073
TTCAGGTTTT | 0.99 ± 0.054

Sequence | switch fluorescence ratio
TTCAGTATCA | 1.06 ± 0.061
TTCAGTCGAG | 0.979 ± 0.02
TTCAGTTTCG | 1.01 ± 0.027
TTCATAAATT | 1.02 ± 0.023
TTCATAGGCA | 1 ± 0.039
TTCATAGTAC | 1.2 ± 0.22
TTCATCGGGT | 1.01 ± 0.014
TTCATGAATT | 0.9956 ± 0.0056
TTCATGATTG | 0.999 ± 0.011
TTCATGGACA | 0.99 ± 0.014
TTCATGGTGG | 1.01 ± 0.052
TTCATGTGGA | 1.017 ± 0.0047
TTCATTAGGA | 1.01 ± 0.029
TTCATTGGTG | 1.09 ± 0.035
TTCCAAAAAA | 1.1 ± 0.04
TTCCAATTAG | 0.968 ± 0.059
TTCCAGAATT | 0.993 ± 0.051
TTCCAGGTGG | 1.42 ± 0.14
TTCCAGTAAT | 1.01 ± 0.024
TTCCATTCGA | 0.992 ± 0.044
TTCCATTGTA | 1.02 ± 0.031
TTCCCACGGG | 1.64 ± 0.31
TTCCCACTAC | 2.63 ± 0.086
TTCCCACTAT | 1.023 ± 0.0078
TTCCCAGATG | 1.81 ± 0.41

Sequence | switch fluorescence ratio
TTCCCATGTT | 1 ± 0.012
TTCCCGCGTA | 1.19 ± 0.13
TTCCCGCTGT | 1.75 ± 0.023
TTCCCGTCAG | 1.022 ± 0.0017
TTCCCTTTGG | 1.01 ± 0.041
TTCCCTTTTT | 1.03 ± 0.019
TTCCGACTCT | 1.31 ± 0.014
TTCCGACTTA | 1.14 ± 0.19
TTCCGGCACT | 1.09 ± 0.029
TTCCGGGATC | 1.91 ± 0.092
TTCCGGGGCC | 0.9978 ± 0.0032
TTCCGGGGGA | 1.08 ± 0.11
TTCCGGGGTT | 1.03 ± 0.022
TTCCGGGTTT | 1.2 ± 0.31
TTCCGGTAAT | 1.23 ± 0.033
TTCCGTATGA | 1.05 ± 0.043
TTCCGTCACG | 1.08 ± 0.043
TTCCGTTGTG | 0.98 ± 0.049
TTCCTAATTG | 1.01 ± 0.012
TTCCTACAAG | 1.06 ± 0.014
TTCCTAGTCT | 1.27 ± 0.19
TTCCTTAGTC | 1.019 ± 0.0045
TTCCTTGGGT | 1.01 ± 0.017
TTCCTTGGTA | 1.04 ± 0.038
TTCCTTTCAA | 1.228 ± 0.012

Sequence | switch fluorescence ratio
TTCCTTTTTA | 1.02 ± 0.015
TTCCTTTTTT | 1.03 ± 0.065
TTCGAACACG | 0.994 ± 0.028
TTCGAACTCG | 1.011 ± 0.0043
TTCGAAGCAC | 2.74 ± 1.7
TTCGAAGTTG | 0.999 ± 0.034
TTCGAATGGT | 0.9724 ± 0.0062
TTCGAATTAG | 2.28 ± 1.7
TTCGACCGTG | 0.997 ± 0.033
TTCGAGACGG | 0.98 ± 0.025
TTCGAGAGTA | 1.05 ± 0.1
TTCGAGAGTG | 0.945 ± 0.054
TTCGAGGAGA | 1.01 ± 0.011
TTCGAGGAGG | 0.981 ± 0.017
TTCGAGTATT | 0.99 ± 0.019
TTCGAGTCTT | 0.9742 ± 0.0083
TTCGAGTTGT | 1.006 ± 0.0025
TTCGATACTT | 0.9922 ± 0.0059
TTCGATTTGG | 1.03 ± 0.0072
TTCGCGGTCT | 1.11 ± 0.13
TTCGCGTTAG | 1.23 ± 0.29
TTCGGAATTT | 0.9882 ± 0.0083
TTCGGAGGGT | 0.9899 ± 0.0088
TTCGGAGTTA | 1.09 ± 0.12
TTCGGCACGT | 1.01 ± 0.021

Sequence | switch fluorescence ratio
TTCGGCAGTG | 1.022 ± 0.0079
TTCGGCCCGA | 1.01 ± 0.039
TTCGGCCGGT | 0.998 ± 0.011
TTCGGCGGGT | 1.03 ± 0.025
TTCGGGAATT | 1.1 ± 0.11
TTCGGGAGGT | 1.05 ± 0.13
TTCGGGATAG | 1.07 ± 0.1
TTCGGGCCGG | 1.01 ± 0.033
TTCGGGCGAA | 1 ± 0.029
TTCGGGCGTC | 1.01 ± 0.039
TTCGGGCGTG | 0.994 ± 0.024
TTCGGGGGAA | 0.993 ± 0.075
TTCGGGGGAT | 1.01 ± 0.02
TTCGGGGGCT | 1.01 ± 0.071
TTCGGGGTCC | 0.99 ± 0.028
TTCGGGGTCT | 1.014 ± 0.0098
TTCGGGTAAG | 0.987 ± 0.043
TTCGGGTATG | 1.01 ± 0.013
TTCGGGTCGG | 0.991 ± 0.026
TTCGGGTGCC | 1.03 ± 0.057
TTCGGGTTGG | 1.02 ± 0.015
TTCGGGTTTA | 0.994 ± 0.055
TTCGGTCTAA | 0.979 ± 0.023
TTCGGTTAGC | 1.05 ± 0.041
TTCGGTTCGT | 0.98 ± 0.066

Sequence | switch fluorescence ratio
TTCGGTTGTA | 1.009 ± 0.0067
TTCGTACGGG | 1.03 ± 0.021
TTCGTAGTTG | 0.992 ± 0.054
TTCGTATAAG | 0.9936 ± 0.0076
TTCGTATATT | 1.02 ± 0.017
TTCGTATCGG | 0.978 ± 0.012
TTCGTCAACA | 1.03 ± 0.046
TTCGTCAGTT | 0.9992 ± 0.0073
TTCGTCTGGG | 1.03 ± 0.065
TTCGTGACTT | 1.02 ± 0.025
TTCGTGCCAG | 1.01 ± 0.043
TTCGTGCTTT | 0.995 ± 0.035
TTCGTGGTGA | 1.02 ± 0.019
TTCGTGTCAG | 0.995 ± 0.023
TTCGTTAAGC | 1.07 ± 0.1
TTCGTTATTG | 1.02 ± 0.026
TTCGTTCCAT | 0.986 ± 0.012
TTCGTTCGGG | 0.992 ± 0.041
TTCGTTCTTG | 0.9641 ± 0.0076
TTCGTTGATG | 0.985 ± 0.016
TTCGTTGGTG | 0.969 ± 0.035
TTCGTTGTAA | 0.98683 ± 0.00096
TTCGTTGTGC | 1.01 ± 0.02
TTCGTTTCGA | 0.965 ± 0.042
TTCGTTTCGG | 1.01 ± 0.037
